{"source": "paper PMC4930479", "key": {"FcγRI (human)": {"target": "FcγRI (human) (UniProt P12314)", "sequence (P12314 16-292)": "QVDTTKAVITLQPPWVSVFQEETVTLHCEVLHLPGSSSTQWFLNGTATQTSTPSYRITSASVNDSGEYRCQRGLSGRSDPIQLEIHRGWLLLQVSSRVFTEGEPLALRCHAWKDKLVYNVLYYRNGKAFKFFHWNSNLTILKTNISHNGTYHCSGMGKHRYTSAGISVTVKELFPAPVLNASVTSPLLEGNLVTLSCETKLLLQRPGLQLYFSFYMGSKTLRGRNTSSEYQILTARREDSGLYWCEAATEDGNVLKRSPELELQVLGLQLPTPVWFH", "assay": "SPR; His-tagged or myc-myc His-tagged Fcγ receptors captured (about 200 RU) on anti-histidine antibody on a CM4 or CM5 chip; inhibitor with or without equimolar VEGF165 or VEGF121 injected (1 µM in Table 1); Biacore 3000, 25 °C, HBS-T pH 7.4; only kd and t1/2 calculated"}, "FcγRIIIb (human)": {"target": "FcγRIIIb (human) (UniProt O75015)", "sequence (O75015 17-200)": "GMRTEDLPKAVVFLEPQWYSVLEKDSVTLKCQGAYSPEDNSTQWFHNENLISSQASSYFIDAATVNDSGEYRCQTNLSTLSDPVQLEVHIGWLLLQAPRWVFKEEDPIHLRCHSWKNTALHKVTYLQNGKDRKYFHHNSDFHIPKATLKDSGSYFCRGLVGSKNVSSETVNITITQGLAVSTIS", "assay": "SPR; His-tagged or myc-myc His-tagged Fcγ receptors captured (about 200 RU) on anti-histidine antibody on a CM4 or CM5 chip; inhibitor with or without equimolar VEGF165 or VEGF121 injected (1 µM in Table 1); Biacore 3000, 25 °C, HBS-T pH 7.4; only kd and t1/2 calculated"}, "FcγRIIb (human)": {"target": "FcγRIIb (human) (UniProt P31994)", "sequence (P31994 43-217)": "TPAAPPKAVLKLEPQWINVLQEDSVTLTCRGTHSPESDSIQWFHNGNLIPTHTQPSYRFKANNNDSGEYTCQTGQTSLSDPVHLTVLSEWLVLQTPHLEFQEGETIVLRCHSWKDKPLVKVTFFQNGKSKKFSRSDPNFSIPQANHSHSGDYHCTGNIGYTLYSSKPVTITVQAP", "assay": "SPR; His-tagged or myc-myc His-tagged Fcγ receptors captured (about 200 RU) on anti-histidine antibody on a CM4 or CM5 chip; inhibitor with or without equimolar VEGF165 or VEGF121 injected (1 µM in Table 1); Biacore 3000, 25 °C, HBS-T pH 7.4; only kd and t1/2 calculated"}, "VEGF165 (human)": {"target": "VEGF165 (human)", "assay": "SEC-MALS; inhibitor and ligand mixed at molar ratios 5:1 to 1:5 (20 µM and 100 µM), 12 h at ambient temperature; free proteins injected separately; Superose 12 10/300 GL, 10 mM phosphate, 500 mM NaCl, pH 7.0, 0.3 mL/min"}, "FcγRIIIa (176F) (human)": {"target": "FcγRIIIa (176F) (human) (UniProt P08637)", "sequence (P08637 17-254)": "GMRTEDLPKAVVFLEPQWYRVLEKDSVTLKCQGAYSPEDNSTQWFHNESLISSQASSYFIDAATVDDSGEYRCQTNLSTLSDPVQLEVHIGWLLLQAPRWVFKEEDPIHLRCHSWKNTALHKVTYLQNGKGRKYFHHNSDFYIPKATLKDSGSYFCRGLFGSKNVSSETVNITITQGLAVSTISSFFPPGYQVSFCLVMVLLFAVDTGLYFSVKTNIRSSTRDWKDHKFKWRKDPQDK", "assay": "SPR; His-tagged or myc-myc His-tagged Fcγ receptors captured (about 200 RU) on anti-histidine antibody on a CM4 or CM5 chip; inhibitor with or without equimolar VEGF165 or VEGF121 injected (1 µM in Table 1); Biacore 3000, 25 °C, HBS-T pH 7.4; only kd and t1/2 calculated"}, "[1]": {"target": "FcγRIIa (131R allele) (human) (UniProt P12318)", "assay": "SPR; His-tagged or myc-myc His-tagged Fcγ receptors captured (about 200 RU) on anti-histidine antibody on a CM4 or CM5 chip; inhibitor with or without equimolar VEGF165 or VEGF121 injected (1 µM in Table 1); Biacore 3000, 25 °C, HBS-T pH 7.4; only kd and t1/2 calculated"}, "FcγRIIIa (176V) (human)": {"target": "FcγRIIIa (176V) (human) (UniProt P08637)", "sequence (P08637 17-254 F176V)": "as the sequence (P08637 17-254) above, with F160V counted along it", "assay": "SPR; His-tagged or myc-myc His-tagged Fcγ receptors captured (about 200 RU) on anti-histidine antibody on a CM4 or CM5 chip; inhibitor with or without equimolar VEGF165 or VEGF121 injected (1 µM in Table 1); Biacore 3000, 25 °C, HBS-T pH 7.4; only kd and t1/2 calculated"}, "PlGF-2": {"target": "T1, PlGF-2 (UniProt P49763)", "T1 sequence": "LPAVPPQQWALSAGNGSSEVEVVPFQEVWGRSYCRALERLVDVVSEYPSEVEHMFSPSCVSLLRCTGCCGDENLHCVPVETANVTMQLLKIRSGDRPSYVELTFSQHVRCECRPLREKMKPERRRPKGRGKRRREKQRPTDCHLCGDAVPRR", "assay": "SEC-MALS; inhibitor and ligand mixed at molar ratios 5:1 to 1:5 (20 µM and 100 µM), 12 h at ambient temperature; free proteins injected separately; Superose 12 10/300 GL, 10 mM phosphate, 500 mM NaCl, pH 7.0, 0.3 mL/min"}}, "data": [{"substance": "bevacizumab:VEGF165 complex", "values": [{"measurement": "t1/2", "setting": "FcγRI (human)", "result": 47.9, "unit": "min"}, {"measurement": "t1/2", "setting": "FcγRIIIb (human)", "result": 7.72, "unit": "min"}, {"measurement": "t1/2", "setting": "FcγRIIb (human)", "result": 11.8, "unit": "min"}]}, {"substance": "VEGF165 (ligand)", "values": [{"measurement": "stoichiometry N", "setting": "VEGF165 (human)", "result": 2}]}, {"substance": "bevacizumab:VEGF121 complex", "values": [{"measurement": "t1/2", "setting": "FcγRI (human)", "result": 57, "unit": "min"}, {"measurement": "t1/2", "setting": "FcγRIIIb (human)", "result": 4.42, "unit": "min"}, {"measurement": "t1/2", "setting": "FcγRIIb (human)", "result": 6.33, "unit": "min"}]}, {"substance": "aflibercept:VEGF121 complex", "values": [{"measurement": "t1/2", "setting": "FcγRIIIa (176F) (human)", "result": 0.317, "unit": "min"}, {"measurement": "t1/2", "setting": "[1]", "result": 0.0667, "unit": "min"}, {"measurement": "t1/2", "setting": "FcγRIIIa (176V) (human)", "result": 2.02, "unit": "min"}, {"measurement": "t1/2", "setting": "FcγRI (human)", "result": 16.9, "unit": "min"}, {"measurement": "t1/2", "setting": "FcγRIIIb (human)", "result": 0.0833, "unit": "min"}]}, {"substance": "bevacizumab (antibody)", "values": [{"measurement": "koff", "setting": "FcγRIIIa (176F) (human)", "result": 0.0626, "unit": "s⁻¹"}, {"measurement": "t1/2", "setting": "FcγRIIIa (176F) (human)", "result": 0.183, "unit": "min"}, {"measurement": "koff", "setting": "[1]", "result": 0.111, "unit": "s⁻¹"}, {"measurement": "t1/2", "setting": "[1]", "result": 0.1, "unit": "min"}, {"measurement": "koff", "setting": "FcγRIIIa (176V) (human)", "result": 0.00803, "unit": "s⁻¹"}, {"measurement": "t1/2", "setting": "FcγRIIIa (176V) (human)", "result": 1.43, "unit": "min"}, {"measurement": "koff", "setting": "FcγRI (human)", "result": 0.000749, "unit": "s⁻¹"}, {"measurement": "t1/2", "setting": "FcγRI (human)", "result": 15.4, "unit": "min"}, {"measurement": "koff", "setting": "FcγRIIIb (human)", "result": 0.196, "unit": "s⁻¹"}, {"measurement": "t1/2", "setting": "FcγRIIIb (human)", "result": 0.0667, "unit": "min"}, {"measurement": "koff", "setting": "FcγRIIb (human)", "result": 0.179, "unit": "s⁻¹"}, {"measurement": "t1/2", "setting": "FcγRIIb (human)", "result": 0.0667, "unit": "min"}]}, {"substance": "aflibercept:VEGF165 complex", "values": [{"measurement": "koff", "setting": "FcγRIIIa (176F) (human)", "result": 0.0392, "unit": "s⁻¹"}, {"measurement": "t1/2", "setting": "FcγRIIIa (176F) (human)", "result": 0.3, "unit": "min"}, {"measurement": "koff", "setting": "[1]", "result": 0.205, "unit": "s⁻¹"}, {"measurement": "t1/2", "setting": "[1]", "result": 0.05, "unit": "min"}, {"measurement": "koff", "setting": "FcγRIIIa (176V) (human)", "result": 0.00614, "unit": "s⁻¹"}, {"measurement": "t1/2", "setting": "FcγRIIIa (176V) (human)", "result": 1.88, "unit": "min"}, {"measurement": "koff", "setting": "FcγRI (human)", "result": 0.000617, "unit": "s⁻¹"}, {"measurement": "t1/2", "setting": "FcγRI (human)", "result": 18.7, "unit": "min"}, {"measurement": "koff", "setting": "FcγRIIIb (human)", "result": 0.164, "unit": "s⁻¹"}, {"measurement": "t1/2", "setting": "FcγRIIIb (human)", "result": 0.0667, "unit": "min"}, {"measurement": "koff", "setting": "FcγRIIb (human)", "result": 0.174, "unit": "s⁻¹"}, {"measurement": "t1/2", "setting": "FcγRIIb (human)", "result": 0.0667, "unit": "min"}]}, {"substance": "aflibercept (Fc fusion)", "values": [{"measurement": "stoichiometry N (aflibercept per PlGF-2 dimer)", "setting": "PlGF-2", "result": 1}, {"measurement": "stoichiometry N (aflibercept per VEGF165 dimer)", "setting": "VEGF165 (human)", "result": 1}, {"measurement": "t1/2", "setting": "FcγRIIIa (176F) (human)", "result": 0.233, "unit": "min"}, {"measurement": "t1/2", "setting": "FcγRIIIa (176V) (human)", "result": 1.52, "unit": "min"}, {"measurement": "t1/2", "setting": "FcγRI (human)", "result": 16, "unit": "min"}, {"measurement": "t1/2", "setting": "FcγRIIIb (human)", "result": 0.0667, "unit": "min"}]}]}
